B1: L-K: LysK lytic domains inserted between lysostaphin's M23 endopeptidase domain and SH3b cell wall binding domain; SEQ ID NO:7, protein SEQ ID NO:8 (protein)
chain: MAATHEHSAQWLNNYKKGYGYGPYPLGINGGMHYGVDFFMNIGTPVKAISSGKIVEAGWSNYGGGNQIGLIENDGVHRQWYMHLSKYNVKVGDYVKAGQIIGWSGSTGYSTAPHLHFQRMVNSFSNSTAQDPMPFLKSAGYGKAGGTVTPTPNTGLDAKTQAEINKRLDAYAKGTVDSPYRVKKATSYDPSFGVMEAGAIDADGYYHAQCQDLITDYVLWLTDNKVRTWGNAKDQIKQSYGTGFKIHENKPSTVPKKGWIAVFTSGSYEQWGHIGIVYDGGNTSTFTILEQNWNGYANKKPTKRVDNYYGLTHFIEIPVKAGTTVKKETAKKSASKTPAPKKKATLKVSKNHINYTMDKRGKKPEGMVIHNDAGRSSGQQYENSLANAGYARYANGIAHYYGSEGYVWEAIDAKNQIAWHTGDGTGANSGNFRFAGIEVCQSMSASDAQFLKNEQAVFQFTAEKFKEWGLTPNRKTVRLHMEFVPTACPHRSMVLHTGFNPVTQGRPSQAIMNKLKDYFIKQIKNYMDKGTSSSTVVKDGKTSSASLDTVTPTPNTGWKTNKYGTLYKSESASFTPNTDIITRTTGPFRSMPQSGVLKAGQTIHYDEVMKQDGHVWVGYTGNSGQRIYLPVRTWNKSTNTLGVLWGTIKLEHHHHHH
modifications: Staphylococcus simulans & Phage K

What was measured:
[1] = test system: live S. aureus strain Newman cells; assay: Turbidity reduction assay; format: cell-based; settings: 30 minute assay, 150 mM NaCl in SLB, FIG. 3d
Text: FIGS. 3a-3d depict peptidoglycan hydrolase purity and the S. aureus bactericidal assay. […] FIG. 3b is a zymogram analysis using whole S. aureus (Newman) cells embedded within the gel matrix. FIG. 3c is a plate lysis analysis of peptidoglycan hydrolase constructs using live S. aureus (Newman) cell lawns clarified with indicated picomoles of each purified peptidoglycan hydrolase. FIG. 3d is a turbidity reduction analysis showing the linear range of enzyme concentration. A twofold dilution series of each enzyme was used in a 30 minute turbidity reduction assay on live S. aureus strain Newman cells to determine the enzyme concentrations that are within the linear range for each enzyme. Reaction conditions were 150 mM NaCl in SLB. Black, dark grey, light grey, and white bars represent peptidoglycan hydrolase constructs lysostaphin (L), LysK (K), triple fusion K-L, and triple fusion L-K, respectively, as named in FIG. 1a. Values are reported as the maximum rate ΔOD600nm/min±SEM.
SDS-PAGE, zymogram, turbidity reduction and plate lysis assays were performed as described previously (Becker et al. 2009, supra) with minor modifications as follows. For SDS-PAGE and zymogram analysis, one μg of the purified peptidoglycan hydrolase proteins and Kaleidoscope protein standards (Invitrogen, Carlsbad, Calif.) were analyzed by 15% SDS-PAGE. […]

S. aureus Newbould 305 = assay: Murine model of mastitis, bacterial load; format: in vivo, C57BL6/SJL mice; settings: single 1.25 nmoles intramammary infusion 30 minutes post infection, 18 h
Experimental: FIG. 6a depicts the specific activity of peptidoglycan hydrolase fusion constructs in vitro in a turbidity reduction assay with S. aureus Newbould 305 resuspended in lysis buffer to an OD600nm of 1.0 and treated with 1 μM final concentrations of each peptidoglycan hydrolase. The maximum specific activity for three experiments are represented as an average with SEM error bars. FIG. 6b depicts the bacterial burden in mice with mastitis treated with recombinant peptidoglycan hydrolases. Colony Forming Units (CFUs) from infected murine mammary glands following a single treatment with 50 μl of 25 μM peptidoglycan hydrolase (1.25 nmol). Each data point represents the average of duplicate bacterial platings. The horizontal bars represent the average CFU/mg for each group. FIG. 6c illustrates the TNFα response in mice with mastitis that were treated with peptidoglycan hydrolases. Data represents a minimum of 7 measurements in duplicate. Log TNFα was used for statistical analysis. Single asterisks indicate a significant difference from buffer control (p<0.05); double asterisks indicate a significant difference from the parental enzyme (p<0.05).
To evaluate the efficacy of purified, individually administered peptidoglycan hydrolases in a murine model of bovine mastitis, female C57BL6/SJL mice were challenged by the intramammary route with 100 CFU S. aureus Newbould 305 in 50 μl buffer. A single 1.25 nmoles intramammary infusion of each desired peptidoglycan hydrolase (50 μl of a 25 μM solution) or 50 μl PBS was given 30 minutes post infection [with up to six glands treated per animal, each gland receiving a unique treatment] as described earlier (Schmelcher et al. 2012. Appl. Environ. Microbiol. 78:2297-2305; Kerr et al. 2001. Nat. Biotechnol. 19:66-70). Dams were euthanized 18 h post infusion, the mammary glands were aseptically dissected, and portions of the gland were used for determination of bacterial load and TNFα concentrations, as described previously (Schmelcher et al., supra).
Statistical analysis: The variables were analyzed as two-factor mixed models with Treatment as the factor and Mouse as random Blocks. This model […] within mouse correlations. Log(TNFα) was used. The variance grouping technique was used for log CFU and log TNFα to correct for variance heterogeneity. Means comparisons were done with Sidak adjusted p-values so that the experiment-wise error was 0.05. Log(TNFα) is back-transformed to the original units for graphing.

Row | Molecule | turbidity reduction activity compared to parental enzymes [1] | bacterial load / clearance of mammary glands (in words) (S. aureus Newbould 305) | reduction of bacterial load in mammary glands compared to controls (S. aureus Newbould 305)
1 | K-L: both LysK lytic domains fused to the N-terminus of lysostaphin; SEQ ID NO:5, protein SEQ ID NO:6 | as effective as the parental peptidoglycan hydrolases | not able to clear the mammary gland bacterial infection more than buffer alone | –
2 | L: 247 amino acid mature (secreted) lysostaphin, staphylolytic bacteriocin, C-terminal His6 tag; SEQ ID NO:1 [reference compound] | – | – | approximately 4 logs
3 | B1 | as effective as the parental peptidoglycan hydrolases | – | –

Reference: US20160097044A1, “Antimicrobial Enzyme Fusions Reduce Resistance and Kill Intracellular Staphylococcus aureus” (The United States of America, as Represented by the …, priority 2014, published 2016)
